# IntAct's records for PubMed 12826668
# B1: Disabled homolog 1 (Mus musculus), P97318 (parent)
# chain: MSTETELQVAVKTSAKKDSRKKGQDRSEATLIKRFKGEGVRYKAKLIGIDEVSAARGDKLCQDSMMKLKGVVAGARSKGEHKQKIFLTISFGGIKIFDEKTGALQHHHAVHEISYIAKDITDHRAFGYVCGKEGNHRFVAIKTAQAAEPVILDLRDLFQLIYELKQREELEKKAQKDKQCEQAVYQTILEEDVEDPVYQYIVFEAGHEPIRDPETEENIYQVPTSQKKEGVYDVPKSQPNSQPLEDFESRFAAATPNRNLSMDFDELLEATKVSAVTQLELFGDMSTPPDITSPPTPATPGDAFLPSSSQTLPGSADVFGSMSFGTAAVPSGYVAMGAVLPSFWGQQPLVQQQIAMGAQPPVAQVIPGAQPIAWGQPGLFPATQQAWPTVAGQFPPAAFMPTQTVMPLAAAMFQGPLTPLATVPGTNDSARSSPQSDKPRQKMGKESFKDFQMVQPPPVPSRKPDQPSLTCTSEAFSSYFNKVGVAQDTDDCDDFDISQLNLTPVTSTTPSTNSPPTPAPRQSSPSKSSASHVSDPTADDIFEEGFESPSKSEEQEAPDGSQASSTSDPFGEPSGEPSGDNISPQDGS
# partner: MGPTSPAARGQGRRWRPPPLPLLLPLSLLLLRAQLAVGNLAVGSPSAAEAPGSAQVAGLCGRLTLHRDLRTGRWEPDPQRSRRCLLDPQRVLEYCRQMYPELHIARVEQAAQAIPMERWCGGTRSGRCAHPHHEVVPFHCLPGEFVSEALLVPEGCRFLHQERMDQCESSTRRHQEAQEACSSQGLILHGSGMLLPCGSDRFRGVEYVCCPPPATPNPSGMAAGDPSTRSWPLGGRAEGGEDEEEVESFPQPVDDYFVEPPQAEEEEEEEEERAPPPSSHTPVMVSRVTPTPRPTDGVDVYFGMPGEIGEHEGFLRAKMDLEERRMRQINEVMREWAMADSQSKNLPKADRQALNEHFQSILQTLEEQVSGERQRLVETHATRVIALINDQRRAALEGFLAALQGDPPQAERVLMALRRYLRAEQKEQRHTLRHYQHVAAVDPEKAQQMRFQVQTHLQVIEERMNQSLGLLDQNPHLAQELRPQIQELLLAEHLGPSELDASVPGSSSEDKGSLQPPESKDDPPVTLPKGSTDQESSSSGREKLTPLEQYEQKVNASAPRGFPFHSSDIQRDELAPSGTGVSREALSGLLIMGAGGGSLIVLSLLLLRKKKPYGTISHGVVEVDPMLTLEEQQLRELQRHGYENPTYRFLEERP
# Variants of: B1
# Details: with aplp1_mouse Aplp1, Q03157
row,effect of a mutation on the interaction,Variant
1,disrupting interaction,MSTETELQVAVKTSAKKDSRKKGQDRSEATLIKRFKGEGVRYKAKLIGIDEVSAARGDKLCQDSMMKLKGVVAGARSKGEHKQKIFLTISFGGIKIFDEKTGALQHHHAVHEITYIAKDITDHRAFGYVCGKEGNHRFVAIKTAQAAEPVILDLRDLFQLIYELKQREELEKKAQKDKQCEQAVYQTILEEDVEDPVYQYIVFEAGHEPIRDPETEENIYQVPTSQKKEGVYDVPKSQPNSQPLEDFESRFAAATPNRNLSMDFDELLEATKVSAVTQLELFGDMSTPPDITSPPTPATPGDAFLPSSSQTLPGSADVFGSMSFGTAAVPSGYVAMGAVLPSFWGQQPLVQQQIAMGAQPPVAQVIPGAQPIAWGQPGLFPATQQAWPTVAGQFPPAAFMPTQTVMPLAAAMFQGPLTPLATVPGTNDSARSSPQSDKPRQKMGKESFKDFQMVQPPPVPSRKPDQPSLTCTSEAFSSYFNKVGVAQDTDDCDDFDISQLNLTPVTSTTPSTNSPPTPAPRQSSPSKSSASHVSDPTADDIFEEGFESPSKSEEQEAPDGSQASSTSDPFGEPSGEPSGDNISPQDGS [S114T]
2,decreasing interaction,MSTETELQVAVKTSAKKDSRKKGQDRSEATLIKRFKGEGVRYKAKLIGIDEVSAARGDKLCQDSMMKLKGVVAGARSKGEHKQKIFLTISFGGIKIFDEKTGALQHHHAVHEISYIAKDITDHRAFGYVCGKEGNRRFVAIKTAQAAEPVILDLRDLFQLIYELKQREELEKKAQKDKQCEQAVYQTILEEDVEDPVYQYIVFEAGHEPIRDPETEENIYQVPTSQKKEGVYDVPKSQPNSQPLEDFESRFAAATPNRNLSMDFDELLEATKVSAVTQLELFGDMSTPPDITSPPTPATPGDAFLPSSSQTLPGSADVFGSMSFGTAAVPSGYVAMGAVLPSFWGQQPLVQQQIAMGAQPPVAQVIPGAQPIAWGQPGLFPATQQAWPTVAGQFPPAAFMPTQTVMPLAAAMFQGPLTPLATVPGTNDSARSSPQSDKPRQKMGKESFKDFQMVQPPPVPSRKPDQPSLTCTSEAFSSYFNKVGVAQDTDDCDDFDISQLNLTPVTSTTPSTNSPPTPAPRQSSPSKSSASHVSDPTADDIFEEGFESPSKSEEQEAPDGSQASSTSDPFGEPSGEPSGDNISPQDGS [H136R]
3,disrupting interaction,MSTETELQVAVKTSAKKDSRKKGQDRSEATLIKRFKGEGVRYKAKLIGIDEVSAARGDKLCQDSMMKLKGVVAGARSKGEHKQKIFLTISFGGIKIFDEKTGALQHHHAVHEISYIAKDITDHRAFGYVCGKEGNHRFVAIKTAQAAEPVILDLRDLVQLIYELKQREELEKKAQKDKQCEQAVYQTILEEDVEDPVYQYIVFEAGHEPIRDPETEENIYQVPTSQKKEGVYDVPKSQPNSQPLEDFESRFAAATPNRNLSMDFDELLEATKVSAVTQLELFGDMSTPPDITSPPTPATPGDAFLPSSSQTLPGSADVFGSMSFGTAAVPSGYVAMGAVLPSFWGQQPLVQQQIAMGAQPPVAQVIPGAQPIAWGQPGLFPATQQAWPTVAGQFPPAAFMPTQTVMPLAAAMFQGPLTPLATVPGTNDSARSSPQSDKPRQKMGKESFKDFQMVQPPPVPSRKPDQPSLTCTSEAFSSYFNKVGVAQDTDDCDDFDISQLNLTPVTSTTPSTNSPPTPAPRQSSPSKSSASHVSDPTADDIFEEGFESPSKSEEQEAPDGSQASSTSDPFGEPSGEPSGDNISPQDGS [F158V]
